Where two headings read alike, the source gives them in different places.
T1: human CD39 expressed on the cell surface (human, UniProt P49961 1-510)
T1 sequence: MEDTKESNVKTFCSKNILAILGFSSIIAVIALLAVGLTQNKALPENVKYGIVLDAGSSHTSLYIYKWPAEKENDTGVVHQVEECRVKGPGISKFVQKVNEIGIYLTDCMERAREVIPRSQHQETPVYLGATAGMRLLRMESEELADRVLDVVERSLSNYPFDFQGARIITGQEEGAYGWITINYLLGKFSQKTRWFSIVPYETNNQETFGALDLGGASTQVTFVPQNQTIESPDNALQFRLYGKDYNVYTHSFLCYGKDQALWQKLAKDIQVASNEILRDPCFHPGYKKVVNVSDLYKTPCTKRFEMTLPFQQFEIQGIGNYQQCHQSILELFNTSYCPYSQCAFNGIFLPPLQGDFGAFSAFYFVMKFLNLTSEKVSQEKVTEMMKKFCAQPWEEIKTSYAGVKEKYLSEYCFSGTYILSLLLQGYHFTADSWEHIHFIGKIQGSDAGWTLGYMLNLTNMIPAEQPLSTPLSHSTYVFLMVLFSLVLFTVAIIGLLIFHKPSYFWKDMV

T2: soluble His-tagged human CD39 ECD protein (human, UniProt P49961 38-478)
T2 construct: also called human CD39 ECD His-tagged antigen; Sino Biological Cat. No. 16020-H08B
T2 sequence: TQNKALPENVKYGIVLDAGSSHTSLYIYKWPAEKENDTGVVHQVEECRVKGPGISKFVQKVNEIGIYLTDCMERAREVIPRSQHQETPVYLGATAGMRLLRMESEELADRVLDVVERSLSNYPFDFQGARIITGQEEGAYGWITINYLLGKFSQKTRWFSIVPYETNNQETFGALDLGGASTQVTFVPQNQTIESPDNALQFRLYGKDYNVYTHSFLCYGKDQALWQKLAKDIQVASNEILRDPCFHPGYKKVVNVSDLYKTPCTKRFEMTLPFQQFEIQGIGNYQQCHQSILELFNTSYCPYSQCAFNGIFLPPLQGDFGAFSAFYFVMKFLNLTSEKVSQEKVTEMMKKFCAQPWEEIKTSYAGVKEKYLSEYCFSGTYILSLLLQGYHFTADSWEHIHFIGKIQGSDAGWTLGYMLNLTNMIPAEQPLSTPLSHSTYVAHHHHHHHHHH

T3: cynomolgus monkey CD39 expressed on HEK-293 cells (cynomolgus monkey, UniProt P49961 5-510 (human entry))
T3 construct: also called Cynomolgus Monkey CD39-HEK293
T3 chain: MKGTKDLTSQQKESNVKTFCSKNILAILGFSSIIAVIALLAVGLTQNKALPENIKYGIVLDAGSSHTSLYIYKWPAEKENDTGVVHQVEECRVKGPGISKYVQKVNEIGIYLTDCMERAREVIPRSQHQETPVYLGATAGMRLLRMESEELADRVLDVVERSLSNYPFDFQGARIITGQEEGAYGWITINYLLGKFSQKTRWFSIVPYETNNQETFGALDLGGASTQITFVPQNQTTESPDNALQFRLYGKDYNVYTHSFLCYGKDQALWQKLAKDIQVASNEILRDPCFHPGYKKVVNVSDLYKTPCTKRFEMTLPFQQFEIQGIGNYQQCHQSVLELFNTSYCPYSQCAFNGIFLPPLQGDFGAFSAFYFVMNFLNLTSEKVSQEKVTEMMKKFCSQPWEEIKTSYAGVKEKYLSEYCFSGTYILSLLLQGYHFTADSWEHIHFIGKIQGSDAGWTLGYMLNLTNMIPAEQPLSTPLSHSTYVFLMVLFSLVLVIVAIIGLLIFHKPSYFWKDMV


Tests used:
[1] = molecular target: T1, human CD39 expressed on the cell surface; test: cell-based or functional assay
[2] = molecular target: T2, soluble His-tagged human CD39 ECD …; test: SPR (Biacore 8K), antibody captured via anti-human Fc, CD39 ECD analyte
[3] = molecular target: T1, human CD39 expressed on the cell surface; test: cell-based or functional assay; remark: listed apart in the source
[4] = molecular target: T1, human CD39 expressed on the cell surface; test: cell-based or functional assay; remark: listed apart in the source
[5] = molecular target: T1, human CD39 expressed on the cell surface; test: cell-based or functional assay; remark: listed apart in the source
[6] = molecular target: T1, human CD39 expressed on the cell surface; test: flow cytometry on purified human CD14+ monocytes, 400 uM ATP
[7] = molecular target: T1, human CD39 expressed on the cell surface; test: cell-based or functional assay; remark: listed apart in the source
[8] = molecular target: T1, human CD39 expressed on the cell surface; test: FACS on CHO-K1 cells overexpressing human CD39
[9] = molecular target: T3, cynomolgus monkey CD39 expressed on …; test: FACS on HEK293 cells overexpressing cynomolgus CD39
[10] = molecular target: T2, soluble His-tagged human CD39 ECD …; test: SPR (Biacore 8K), antibody captured via anti-human Fc, CD39 ECD analyte; remark: listed apart in the source
[11] = molecular target: T1, human CD39 expressed on the cell surface; test: flow cytometry on purified human CD14+ monocytes, 0 uM ATP

IC50, CD39 enzymatic inhibition on human monocytes, 400 uM ATP [1] [nM]	Max Inhibition (%), human monocytes, 400 uM ATP [1] [%]	Kd [2] [nM]	IC50, CD39 enzymatic inhibition on SK-MEL-5 cells, 20 uM ATP [3] [nM]	Max Inhibition (%), SK-MEL-5 cells [3] [%]	IC50, CD39 enzymatic inhibition on THP-1 cells, 20 uM ATP [4] [nM]	Max Inhibition (%), THP-1 cells [4] [%]	IC50, CD39 enzymatic inhibition on human monocytes, 20 uM ATP [5] [nM]	Max Inhibition (%), human monocytes, 20 uM ATP [5] [%]	EC50 [6] [nM]	Human THP-1 CD39 inhibition IC50 [7] [nM]	EC50 [8] [nM]	EC50 [9] [nM]	Kd [10] [nM]	koff [10] [s⁻¹]	kon [10] [M⁻¹ s⁻¹]	EC50 [11] [nM]	Binder
0.14	80	0.0936	–	–	–	–	–	–	–	–	–	–	–	–	–	–	hu39.2_IGG4.P (antibody, human IgG4 S228P, kappa, humanized variant of antibody 39 (VH1 + VL1), IgG4 (S228P)) heavy: not shown light: DIVLTQSPASLAVSPGQRATITCRASEGVKSYMHWYQQKPGQPPKLLIYKASNLASGVPARFSGSGSGTDFTLTINPVEADDTANYYCQQSWNDPTFGQGTKLEIKRTVAAPSVFIFPPSDEQLKSGTASVVCLLNNFYPREAKVQWKVDNALQSGNSQESVTEQDSKDSTYSLSSTLTLSKADYEKHKVYACEVTHQGLSSPVTKSFNRGEC
0.45	73	0.185	0.13	60	0.064	76	0.13	71	10	–	–	–	–	–	–	–	hu39.4_IGG4.P (antibody, human IgG4 S228P, kappa, humanized variant of antibody 39 (VH3 + VL1), IgG4 (S228P)) heavy: not shown light: DIVLTQSPASLAVSPGQRATITCRASEGVKSYMHWYQQKPGQPPKLLIYKASNLASGVPARFSGSGSGTDFTLTINPVEADDTANYYCQQSWNDPTFGQGTKLEIKRTVAAPSVFIFPPSDEQLKSGTASVVCLLNNFYPREAKVQWKVDNALQSGNSQESVTEQDSKDSTYSLSSTLTLSKADYEKHKVYACEVTHQGLSSPVTKSFNRGEC
–	–	–	–	–	–	–	–	–	–	0.25	1.83	1.01	0.496	0.000615	1.24e+06	–	hu31.7_IGG4.P (antibody, human IgG4 S228P, kappa, V domains shown, humanized variant of antibody 31 (VH2 + VL2), IgG4 (S228P)) VH: EVQLVQSGAEVKKPGATVKISCKVSGDSITAYFMHWVQQAPGKGLEWMGRIDPDHERTKYAEKFKNRVTITADTSTNTVYMELSSLRSEDTAVYYCATERVPGFETDYWGQGVMVTVSS VL: DIVMTQSPDLAVSLGERATINCRTQQTVDHYGTTYMNWYQQKPGQPPKLLIYLASSLASGVPDRFSGSGSGTDFTLTISSLQAEDVAVYYCQQSRNLWTFGGGTKVEIKR
–	–	–	1.1	71	0.095	73	0.59	74	26	0.26	1.7	0.78	0.176	–	–	16	hu31.4_IGG4.P (antibody, human IgG4 S228P, kappa, humanized variant of antibody 31 (VH1 + VL1), IgG4 (S228P)) heavy: not shown light: DIVLTQSPALAVSPGQRATITCRTQQTVDHYGTTYMNWYQQKPGQPPKLLIYLASSLASGVPARFSGSGSGTDFTLTINPVEADDTANYYCQQSRNLWTFGGGTKVEIKRTVAAPSVFIFPPSDEQLKSGTASVVCLLNNFYPREAKVQWKVDNALQSGNSQESVTEQDSKDSTYSLSSTLTLSKADYEKHKVYACEVTHQGLSSPVTKSFNRGEC
–	–	–	–	–	–	–	–	–	–	0.3	1.69	0.81	0.613	0.000684	1.12e+06	–	hu31.6_IGG4.P (antibody, human IgG4 S228P, kappa, V domains shown, humanized variant of antibody 31 (VH2 + VL1), IgG4 (S228P)) VH: EVQLVQSGAEVKKPGATVKISCKVSGDSITAYFMHWVQQAPGKGLEWMGRIDPDHERTKYAEKFKNRVTITADTSTNTVYMELSSLRSEDTAVYYCATERVPGFETDYWGQGVMVTVSS VL: DIVLTQSPALAVSPGQRATITCRTQQTVDHYGTTYMNWYQQKPGQPPKLLIYLASSLASGVPARFSGSGSGTDFTLTINPVEADDTANYYCQQSRNLWTFGGGTKVEIKR
